4 molecules from patent US5945585 can be followed below.

Assay [1] deals with lauryl-ACP (12:0-ACP). The settings on record: scale: pmoles per min per microliter of cell lysate.
Assay [2] deals with [14C]oleoyl-ACP made from E. coli acyl carrier protein (E. coli) (UniProt P0A6A8). The settings on record: scale: pmoles per min per microliter of cell lysate.
Assay [3] addresses caproyl-ACP (10:0-ACP). The settings on record: scale: pmoles per min per microliter of cell lysate.
For assay [4], the target named is [14C]oleoyl-ACP made from E. coli acyl carrier protein (E. coli) (UniProt P0A6A8). The settings on record: scale: times the E. coli background thioesterase activity.
Assay [5] concerns the target [14C]stearoyl-ACP made from E. coli acyl carrier protein (E. coli) (UniProt P0A6A8).
The target in assay [6] is [14C]oleoyl-ACP made from E. coli acyl carrier protein (E. coli) (UniProt P0A6A8).

As for “β-galactosidase fusion protein of the Cuphea viscossisima oleoyl-ACP thioesterase precursor (p1A insert in pBluescript) (enzyme)”, the activity per microliter of cell lysate is 0.1 in assay [1], 15.5 in assay [2] and 0.05 in assay [3].

“β-galactosidase fusion protein of the Brassica napus oleoyl-ACP thioesterase (p5C insert in pBluescript SK, correct orientation) (enzyme)” showed an Oleoyl-ACP thioesterase activity in assay [4] of 26.

B1: soybean seed acyl-ACP thioesterase, purified from developing soybean seeds (Glycine max cultivar Wye) (enzyme)
chain: RVEADPGTLADRLRVGSLTEDGLSYKEKFIVRSYEVGINKTATVETIANLLQEVGCNHAQSVGYSTDGFATTPTMRKLRLIWVTARMHIEIYKYPAWSDIVEIETWCQGEGRVGTRRDFILKDYATDEVIGRATSKWVMMNQDTRRLQKVSDDVKEEYLVFCPREPRLAIPEADSNSLKKIPKLEDPAQYSRLGLVPRRADLDMNQHVNNVTYIGWVLESMPQEIIDSHELQSITLDYRRECGQHDIVDSLTSVEAIQGGAEAVPELKGTNGSATAREDKHEHQQFLHLLRLSTEGLEINRGRTEWRKKAPR
Molecule B1 returned a Net pmol/µL/min (standard acyl-ACP thioesterase assay) in assay [5] of 4.07 pmol/µL/min.

B2: soybean seed acyl-ACP thioesterase expressed from the phaseolin:soybean thioesterase transgene (pZPHTE1) in Brassica napus line 241 (enzyme)
chain: RVEADPGTLADRLRVGSLTEDGLSYKEKFIVRSYEVGINKTATVETIANLLQEVGCNHAQSVGYSTDGFATTPTMRKLRLIWVTARMHIEIYKYPAWSDIVEIETWCQGEGRVGTRRDFILKDYATDEVIGRATSKWVMMNQDTRRLQKVSDDVKEEYLVFCPREPRLAIPEADSNSLKKIPKLEDPAQYSRLGLVPRRADLDMNQHVNNVTYIGWVLESMPQEIIDSHELQSITLDYRRECGQHDIVDSLTSVEAIQGGAEAVPELKGTNGSATAREDKHEHQQFLHLLRLSTEGLEINRGRTEWRKKAPR
In turn, B2 yielded a Thioesterase Activity (nmole min^-1 embryo^-1), nmoles of 18:1-ACP hydrolyzed per embryo per minute (nmole min^-1 embryo^-1) in assay [6] of 4.53.
